Measurements reported in US7858348B2, “N-acetyl-(R,S)-beta-amino acid acylase gene” (Ajinomoto Co., Inc., priority 2006, dated 2010).

B1: N-acetyl-(S)-β-amino acid acylase: enzyme purified from Burkholderia sp. AJ110349, subunit about 41 kDa, SEQ. ID. NO. 10 (protein)
chain: MDFCQMNDLASRKGRIQTVLGLIDPHELGPALMHEHLLIDLVPPKLAEDADHDQTEIDLCNCWKINYGQVPSLKNYRLDQKDVAVEELLEMRAAGGSAIVDLTTGGLKPDPQGLAQISREAGVHVVMGCGHYVHEYQDAANAHRSVDDFASEMIGQITEGAWGTQVRAGIIGEIGCQSPWTEQEKRVVRGALIAQQETGAALNIHPGRHAEQPQEVIDTIKSLGYPVERVIISHIDRTIFDDTRLLRLADSGCVIELDLFGWEQSAYPMSDIDMPNDGARLRMVRTLLDHGHAERVLISHDICTRTRLGRYGGHGYQHIFANVVPRMLRRDFTQDEIDTLLTRNPRRLLTFV
modifications: Burkholderia sp.AJ110349
notes: enzyme purified from Burkholderia sp; ID; NO; 10
B2: N-acetyl-(R)-β-amino acid acylase: enzyme purified from Burkholderia sp. AJ110349, subunit about 84 kDa, SEQ. ID. NO. 8 (protein)
chain: MITITGYSDVLSAGPGETVEFKVSSKSPHPFTAELVRVIHADPNPAGPGMRFEPLGQVFSGTFASFDKPLLPGSFARVSGVPAAGSAAGLVAGARIRPTALARGDQCVMSQWNTARHAGFALLVSERGLELRLGAGTGEPPVCVLCAARLEVRWYDVWFAIDTASNRIEVGVTEVDGSVAAPVRHRTLQMLDARWRAPHSDDAADLLIGALEDGAGRRAHFNGQIEAPFVADALPSPATPAATVEYAAPRASDFSTDALYAAWDFARGIDTLKIADTTPHARHGTLQNLPTRAVRSSAWNGRERCWRTAPAHYAAIHFHDDDLHDAGWSTDFAFTVPATLKSGAYAMRLSVDGATDYLPFYVRPELGRPGAPLVFVAATYTYQAYANYARGNFDAALRDKVGRWGAYPHNPDDHPEVGLATYNLHSDGSGVMFSSRLRPMLTMRPGFLTFDDSRGSGCRHYIADSHLLDWLEHEGFSFDVVTDDDLERFGAALLEPYAAVLTGTHPEYHTAATLDALAGYKRSGGNLAYLGGNGFYWRVGRSERVPGALEVRRTEGGVRAWAAEAGEYFHALDGEYGGLWRSSARTPQQLVGVGFSSQGPFEGSHYRVLDAARSQPGGSLLKDIAGPLFGGYGLSGGGAAGFELDSTEAADGTPANVIILARSESHSAAFGPALDALLSHTATRARKTPDTLIRSEIVYYETGYGGAVFSVGSITFCGALSHNDYRNDVSTLLRNVLIRFSRDRGAQAHAVPAVAHTEVD
modifications: Burkholderia sp. AJ110349

Experiment: N-acetyl-β-amino acid acylase activity and optical selectivity of purified enzymes and cell-free extracts
Assay type: biochemical
Details: 30° C.; for Specific activity: purified enzyme after Mono-Q, 10 mM N acetyl-(R,S)-β-Phe, 50 mM Tris-HCl (pH 7.6); for Optical specificity (β-Phe enantiomer produced): purified enzyme, N-acetyl-(R,S)-β-Phe, 30 minutes
Method: 10 mM N acetyl-(R,S)-β-Phe, 50 mM Tris-HCl (pH 7.6), and a reaction solution containing a suitable enzyme sample were left standing from 15 minutes to 2 hours at 30° C., and then processed by boiling for 5 minutes to stop the reaction. The reaction solution was centrifuged. The supernatant was suitably diluted and then analyzed by HPLC. Acylase activity that produced 1 μmol of (R)-β-Phe or (S)-β-Phe per minute under these standard reaction conditions was defined as one unit. Activity producing (R)-β-Phe from N-acetyl-(R,S)-β-Phe will be referred to as N-acetyl-(R)-β-Phe acylase activity and activity producing (S)-β-Phe will be referred to as N-acetyl-(S)-β-Phe acylase activity hereinafter.
(R)-β-Phe, (S)-β-Phe, N-acetyl-(R)-β-Phe, and N-acetyl-(S)-β-Phe were quantitatively analyzed. The column employed was an Inertsil ODS3 (0.46 cm in diameter, 5 cm) made by GL Science and a Chiralpak WH (0.46 cm in diameter, 25 cm) made by Daisel Chemical Industries, arranged consecutively in that order. The mobile phase was 0.25 mM CuSO4, 2 percent (v/v) acetonitrile. The flow rate was 1.5 mL/minute. The column temperature was 50° C. Detection was conducted with a UV detector at 210 nm. In this analysis, the above four compounds eluted out at different elution times. The elution sequence, in order of elution speed, was (S)-β-Phe, (R)-β-Phe, N-acetyl-(R)-β-Phe, and N-acetyl-(S)-β-Phe. The quantities were calculated from the peak area values relative to various standard products.
An Inertsil Ph-3 (0.46 cm in diameter, 25 cm) column made by GL Science was employed. The mobile phase was 10 percent acetonitrile (adjusted to pH 3.0 with phosphoric acid). The temperature was 40° C. The flow rate was 1.0 mL/min. Detection was conducted under UV conditions of 210 nm and peak area values were calculated based on comparison with various standard racemic products.
Optical selectivity was measured using the purified enzymes as enzyme sources. Reactions were conducted under the above enzyme conditions for a period of 30 minutes. The quantity of enzyme added was 4.6 μg/mL (N-acetyl-(R)-β-amino acid acylase) or 3.1 μg/mL (N-acetyl-(S)-β-amino acid acylase).
The K83 strain obtained was precultured for 16 hours at 37° C. in LB medium containing 100 mg/L of ampicillin. A 1 mL quantity of the cultured bacterial cells was transferred to 50 mL of TB medium containing 100 mg/L of ampicillin and 1 mM of IPTG and cultured for 16 hours at 30° C. […] When the N-acetyl-β-amino acid acylase activity was measured under the separation conditions of N-acetyl-β-Phe and β-Phe, a value of 2.3 U/mg was obtained.
JM109/ptrp4—3BR was cultured for 16 hours at 37° C. in LB medium containing 100 mg/L of ampicillin. […] The quantity of β-Phe produced was measured by HPLC. […]

Molecule | Specific activity | Optical specificity (β-Phe enantiomer produced)
B1 | 13.1 U/mg | Only the production of (S)-β-Phe was observed
B2 | 12.4 U/mg | only the production of (R)-β-Phe was observed
